Data: US20160038588A1 (Amgen, published 2016)
Where no end group is shown, it is not given here.

T1: recombinant mature myostatin (human, produced in E. coli) (human, UniProt O14793 267-375)
T1 sequence (looked up): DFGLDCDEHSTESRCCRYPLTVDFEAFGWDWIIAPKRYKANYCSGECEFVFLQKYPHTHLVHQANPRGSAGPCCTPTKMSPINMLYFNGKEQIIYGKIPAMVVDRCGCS

B1: recombinant human activin receptor IIB/Fc chimera (R&D Systems) (Fc fusion, UniProt Q13705 19-134, looked up, not shown: a dimerising Fc or GST)
chain: SGRGEAETRECIYYNANWELERTNQSGLERCEGEQDKRLHCYASWRNSSGTIELVKKGCWLDDFNCYDRQECVATEENPQVYFCCCEGNFCNERFTHLPEAGGPEVTYEPPPTAPT

Legend:
[1] = target: T1, recombinant mature myostatin (human, …); assay: cell-based or functional assay
[2] = target: T1, recombinant mature myostatin (human, …); assay: cell-based or functional assay; remark: listed apart in the source

Binder | IC50, C2C12 pMARE-luc assay [1] [nM] | IC50 (read off the curve) [2] [µM]
B1 | ~83 | 
QGHCTRWPWMCPPY (also: cysteine-constrained, bridge type not given here) [TN8-19 peptide] |  | ~20
